# Measurements as given in patent publication US7314754B2, “Polynucleotide encoding the hOT7T175 G protein coupled receptor” (Takeda Pharmaceutical Company Limited, priority 1998, dated 2008).
# No end group written: not given here.
# Target: T1, rOT7T175 (Rattus norvegicus, UniProt Q924U1)
# T1 construct: expressed in transfected cells
# Assay: Measurement of intracellular Ca ion concentration-increasing activity using FLIPR
# Type: cell-based
# Conditions: rOT7T175-23 cells; final peptide concentration 1×10^−5 M to 1×10^−10 M
# Procedure: The stable expression cell line rOT7T175 was obtained by transduction of expression plasmid pAK-rOT175 for animal cell into CHO/dhfr^− cells, using CellPhect Transfection Kit (Amersham Pharmacia Biotech, Inc.). First, […] of Buffer A (attached to CellPhect Transfection Kit) was added to […] of plasmid DNA dissolved in […] of distilled water followed by stirring. After the mixture was settled for 10 minutes, […] of Buffer B (attached to CellPhect Transfection Kit) was added to the mixture, which was vigorously stirred to form liposomes containing the DNA. Then 4×10^5 CHO/dhfr^− cells (obtained from ATCC) were inoculated on a 60 mm Petri dish. After culturing the cells in Ham's F-12 medium (Nissui Seiyaku Co., Ltd.) supplemented with 10% fetal bovine serum (BIO WHITTAKER, Inc.) at 37° C. for 2 days in 5% carbon dioxide gas, […] of the liposomes were dropwise added to the cells in the Petri dish. After culturing the cells at 37° C. for 6 hours in 5% carbon dioxide gas, the cells were washed twice with serum-free Ham's F-12 medium and 3 ml of 15% glycerol was added to the cells in the Petri dish followed by treatment for 2 minutes. […]
# The intracellular Ca ion concentration-increasing activity of the synthetic peptides obtained in (1-1) described above in rOT7T175-23 and ETA24was determined, using FLIPR (Molecular Devices, Inc.). […]
# T1 sequence (Q924U1 whole entry R383V): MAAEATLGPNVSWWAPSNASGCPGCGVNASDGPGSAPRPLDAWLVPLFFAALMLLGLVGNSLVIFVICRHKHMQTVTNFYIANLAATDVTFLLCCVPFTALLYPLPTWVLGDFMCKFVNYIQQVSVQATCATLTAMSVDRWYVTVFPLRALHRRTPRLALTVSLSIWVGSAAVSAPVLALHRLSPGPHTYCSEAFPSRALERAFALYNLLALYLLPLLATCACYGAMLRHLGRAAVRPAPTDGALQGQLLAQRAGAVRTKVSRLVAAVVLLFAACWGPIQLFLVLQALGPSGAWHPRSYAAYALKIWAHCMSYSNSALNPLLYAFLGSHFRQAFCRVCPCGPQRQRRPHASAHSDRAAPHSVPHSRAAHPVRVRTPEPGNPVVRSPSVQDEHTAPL
substance,measurement,value
"PEPTIDE (40-54): C-terminal peptide of PEPTIDE (1-54), residues 40-54, synthesized on p-methyl BHA resin (KDLPNYNWNSFGLRF-NH2)","intracellular Ca ion concentration-increasing activity, comparison of dose response curves (FIG. 9)",highest activity
